Earlier results in PMC8308721, “An Effective and Safe Enkephalin Analog for Antinociception” (Pharmaceutics, 2021).

Target: [3H]DADLE ([D-Ala2, D-Leu5]-enkephalin)
Assay: radioligand

Kd: 0.6 nM
Substance: Delta opioid receptor (from UniProt P41143)
